T1: human placenta growth factor (PlGF-2) (human, UniProt P49763-3 19-170, limits assumed)
T1 construct: also called human P1GF-2
T1 sequence (looked up): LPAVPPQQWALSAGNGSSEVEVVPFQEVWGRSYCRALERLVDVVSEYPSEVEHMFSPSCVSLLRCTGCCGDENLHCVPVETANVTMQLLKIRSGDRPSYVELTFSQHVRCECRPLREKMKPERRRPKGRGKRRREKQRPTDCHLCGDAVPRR

T2: murine VEGF-D (mouse, UniProt P97946 98-206, limits assumed)
T2 construct: also called mVEGF-D
T2 sequence (looked up): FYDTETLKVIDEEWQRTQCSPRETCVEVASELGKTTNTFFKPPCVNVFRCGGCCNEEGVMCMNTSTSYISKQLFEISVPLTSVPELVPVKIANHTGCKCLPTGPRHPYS

T3: mouse placenta growth factor (PlGF-2) (mouse, UniProt P49764 24-158, limits assumed)
T3 construct: also called murine P1GF-2
T3 sequence (looked up): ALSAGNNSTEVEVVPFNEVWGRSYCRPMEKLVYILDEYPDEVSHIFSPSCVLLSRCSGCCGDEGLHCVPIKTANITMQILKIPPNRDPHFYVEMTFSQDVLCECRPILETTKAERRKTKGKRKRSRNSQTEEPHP

T4: human VEGF-B (human, UniProt P49765-2 22-188, limits assumed)
T4 sequence (looked up): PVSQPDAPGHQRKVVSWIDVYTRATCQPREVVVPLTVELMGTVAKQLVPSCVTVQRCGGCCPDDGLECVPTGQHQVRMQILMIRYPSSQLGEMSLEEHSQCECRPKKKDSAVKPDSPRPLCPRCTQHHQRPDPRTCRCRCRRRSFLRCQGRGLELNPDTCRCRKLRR


Columns and labels:
murine VEGF (mouse) [1] = biological target: murine VEGF (mouse) (UniProt Q00731); assay: 25C; given as unpublished results
murine VEGF (mouse) [2] = biological target: murine VEGF (mouse) (UniProt Q00731); assay: BIAcore or solution binding ELISA, Fab, measured as control in the same assays
[3] = biological target: T1, human placenta growth factor (PlGF-2); assay: direct ELISA on homolog-coated wells (2ug/ml), increasing G6 Fab
murine VEGF-D = biological target: T2, murine VEGF-D; assay: as above
[4] = biological target: T3, mouse placenta growth factor (PlGF-2); assay: as above
human VEGF-B = biological target: T4, human VEGF-B; assay: as above

murine VEGF (mouse), sequence (Q00731 other isoform, or with tags, fused parts or gaps limits assumed): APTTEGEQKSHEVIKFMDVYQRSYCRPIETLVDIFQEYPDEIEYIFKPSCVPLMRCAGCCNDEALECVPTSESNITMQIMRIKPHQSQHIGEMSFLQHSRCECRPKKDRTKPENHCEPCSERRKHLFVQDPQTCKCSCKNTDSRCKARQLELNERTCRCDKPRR

Kd (murine VEGF (mouse) [1])	affinity (murine VEGF (mouse) [2])	binding result [3]	binding result (murine VEGF-D)	binding result [4]	binding result (human VEGF-B)	Molecule
300 nM	350 nM	–	–	–	–	Y0317 Fab
–	–	no binding	no binding	no binding	no binding	G6 Fab (Fab, V domains shown, also called G6 antibody; G6 clone) VH: EVQLVESGGGLVQPGGSLRLSCAASGFTISDYWIHWVRQAPGKGLEWVAGITPAGGYTYYADSVKGRFTISADTSKNTAYLQMNSLRAEDTAVYYCARFVFFLPYAMDYWGQGTLVTVSS VL: DIQMTQSPSSLSASVGDRVTITCRASQDVSTAVAWYQQKPGKAPKLLIYSASFLYSGVPSRFSGSGSGTDFTLTISSLQPEDFATYYCQQSYTTPPTFGQGTKVEIKR
